We go through 6 molecules from patent publication US20260083853A1, “CD70 ANTIBODY DRUG CONJUGATES AND METHODS OF USING THE SAME” (Genmab A/S, priority 2022, published 2026).

Substitutions are numbered along the chain they refer to.

In series [1] the test system is human CD70-expressing tumor cells (Raji, Caki-1, 786-O). In words: In vitro cytotoxicity (CTG, 96 h), all cell lines. The class given is cell-based. The procedure:
Raji (ATCC, CCL-86), Caki-1 (Cobioer, CBP60448), and 786-O (BNCC, BNCC338472) were cultured in CO2 thermostatic incubator at 37° C. with 5% CO2 in standard conditions. Cells were sub-cultured every 1-2 days, digested with 0.25% trypsin and passaged with a suitable density. When the cells were in the logarithmic growth phase and the amount meeting the assay's demand, cells were collected and plated onto 96-well solid white flat bottom plates for assay. One day later test articles (2E7 antibody or 2E7-LD038 conjugate ranging from 2 μM to 0.1 nM, or exatecan ranging from 20 μM to 0.03 nM) were added to the cells. Plates were then incubated at 37° C. for 96 h. Cell Titer Glo (CTG) (40 μl per well) was subsequently added to the plates. Luciferase reading was collected 5 min after and analyzed by Microplate readers. All readings were normalized as percentage of viable cells in the untreated control wells and the IC50 values were calculated by Prism software.

The target in series [2] is T1, Human CD70 on CD70-expressing human tumor cell lines (Raji, 786-O, Caki-1) (human, UniProt P32970 1-193).
T1 construct: whole, on cells; Endogenous CD70 on the cells; also called human CD70-expressing cell lines; CD70-positive cell lines 786-O, Raji and Caki-1
T1 sequence (looked up): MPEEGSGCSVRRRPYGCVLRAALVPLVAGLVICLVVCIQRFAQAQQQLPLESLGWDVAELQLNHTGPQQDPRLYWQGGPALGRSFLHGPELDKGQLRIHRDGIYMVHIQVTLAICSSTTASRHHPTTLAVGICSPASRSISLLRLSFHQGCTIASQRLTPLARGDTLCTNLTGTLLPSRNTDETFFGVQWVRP
Put plainly: flow cytometry on Raji cells, detection with PE-conjugated anti-human Fc, MFI(PE). Here is the method:
(§1) The binding activity of 2E7 antibody or 2E7-LD038 ADC was evaluated by Flow cytometric analysis (Beckman, Cytoflex) with target-expressing cell lines, Raji, 786-O, Caki-1, and a cell line with negligible CD70 expression, MCF-7. 3×10⁵ cells were seeded per well at 96-well v-bottomed plate and incubated with 100 μl of 2E7 or 2E7-LD038 in serial dilutions. After 30 minutes of incubation at 4° C., cells were washed twice with PBS, stained with 100 μl of 1:200 diluted PE-conjugated anti human Fc in FACS buffer (1×PBS containing 1% BSA) and then incubated at 4° C. for 30 minutes. After that the cells were washed 2 times with PBS and analyzed by Flow cytometric analysis.
(In flow cytometry, cells or beads pass a laser one at a time.)

Series [3] addresses T1, Human CD70 on CD70-expressing human …. Put plainly: flow cytometry on 786-O cells, detection with PE-conjugated anti-human Fc, MFI(PE). Here is the method: as §1
The target is the same in series [4]. Put plainly: flow cytometry on Caki-1 cells, detection with PE-conjugated anti-human Fc, MFI(PE). The procedure:
as §1

Series [5] addresses T2, Recombinant mouse CD70 extra-cellular domain (ECD) linked to His tag (mouse, UniProt O55237 45-195).
T2 construct: extracellular domain; Purchased or made in house; not shown: His tag
T2 sequence (looked up): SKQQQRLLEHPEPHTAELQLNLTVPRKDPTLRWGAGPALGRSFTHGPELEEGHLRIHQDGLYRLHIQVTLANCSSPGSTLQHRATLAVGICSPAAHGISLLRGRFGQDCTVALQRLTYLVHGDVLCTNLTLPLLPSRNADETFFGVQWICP
In words: BLI (Octet RED), antibody on anti-human IgG Fc tips, CD70 ECD-His in solution 200 to 3.13 nM. The procedure: (§2) Recombinant proteins consisting of the CD70 extra-cellular domain (ECD) linked to His tag were either purchased (from KACTUS or ACRO biosystems) or synthesized in house. 2E7 antibody or 2E7-LD038 conjugate (20 nM) was immobilized on anti-human IgG Fc biosensor tips (Fortebio). Binding assays using varying concentration from 200 nM down to 3.13 nM of recombinant protein in solution were performed using Octet RED (Fortebio). Association time was set at 180 seconds and dissociation time was set at 300 seconds. Binding affinity was calculated using ForteBio Data Acquisition 6.3 software (ForteBio). Affinity was derived by fitting the kinetic data to a 1:1 Langmuir binding model utilizing global fitting algorithms.
A general note: BLI is a label-free optical method that tracks binding on a fibre tip over time.

Series [6] deals with T3, Recombinant human CD70 extra-cellular domain (ECD) linked to His tag (human, UniProt P32970 39-193).
T3 construct: extracellular domain; Purchased (KACTUS or ACRO biosystems) or made in house; also called human CD70 protein; not shown: His tag
T3 sequence (looked up): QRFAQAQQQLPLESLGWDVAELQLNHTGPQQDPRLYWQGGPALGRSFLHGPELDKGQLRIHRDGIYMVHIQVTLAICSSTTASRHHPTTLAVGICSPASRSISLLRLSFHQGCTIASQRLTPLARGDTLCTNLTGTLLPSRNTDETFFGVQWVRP
In words: BLI (Octet RED), antibody on anti-human IgG Fc tips, CD70 ECD-His in solution 200 to 3.13 nM, 1:1 global fit. Here is the method: as §2

In series [7] the target is T4, Recombinant cynomolgus monkey CD70 extra-cellular domain (ECD) linked to His tag (cynomolgus monkey, UniProt A0A2K5WTU9 39-190).
T4 construct: extracellular domain; Purchased or made in house; also called Cyno CD70; not shown: His tag
T4 sequence: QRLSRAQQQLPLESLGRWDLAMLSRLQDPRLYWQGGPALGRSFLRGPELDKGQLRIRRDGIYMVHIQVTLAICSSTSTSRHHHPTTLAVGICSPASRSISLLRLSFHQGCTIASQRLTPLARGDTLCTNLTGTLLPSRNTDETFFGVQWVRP
The series is described as above. The procedure: as §2

Series [8] deals with T1, Human CD70 on CD70-expressing human …. In words: flow cytometry blocking assay on Raji cells; blocked ligand: biotinylated human CD27 at 30 ug/ml, detection with PE-conjugated streptavidin. The procedure:
(§3) CD70-positive cell lines 786-O, Raji and Caki-1 were mixed with varying concentrations from 333.5 nM down to 6 nM of 2E7-LD038 conjugate, or 2E7 antibody, or negative binding control (B12), and incubated at 4° C. for 30 minutes. Cells were washed twice with PBS and then incubated with 30 µg/ml biotinylated human CD27 (the receptor for CD70) at 4° C. Staining was done using PE-conjugated streptavidin for 30 minutes and fluorescence was measured using flow cytometer.

For series [9] the target is unchanged. Put plainly: flow cytometry blocking assay on 786-O cells; blocked ligand: biotinylated human CD27 at 30 ug/ml, detection with PE-conjugated streptavidin. The procedure: as §3
The target is the same in series [10]. In words: flow cytometry blocking assay on Caki-1 cells; blocked ligand: biotinylated human CD27 at 30 ug/ml, detection with PE-conjugated streptavidin. The procedure:
as §3

Series [11] in a line: Hydrophobic interaction chromatography (HIC) of anti-CD70 antibodies. The class given is physicochemical. The following applies: for Retention time (hydrophobicity): TSK gel Butyl-NPR. The procedure: Antibodies were purified from cleared cell culture supernatants using Protein A chromatography (Protein A resin slurry, 4.5 mL, Bogen, Cat #18-0010-02). Briefly, supernatants were prepared for affinity chromatography and loaded onto the columns and allowed to flow completely through the resin. The columns were washed with binding buffer containing 0.15M NaCl and 0.2M PB, PH7.0. Antibody was eluted with elution buffer containing 0.15M NaCl, 0.1M Glycine and 0.2M PB, PH 3.0. Fractions were collected and neutralized by the addition of 1/10 volume of 1M Tris, PH9.0. The fractions were dialyzed for 2 hours against 1×PBS. Purified antibody was quantified by absorbance at A280. Samples from each step of the protein A chromatography were applied onto 12% SDS-PAGE gels for reduced and non-reduced electrophoresis. The hydrophobicity was assessed with hydrophobic interaction chromatography (HIC) on a TSK gel Butyl-NPR, 4.6×100 mm with Butyl-NPR (Tosoh corporation) using a Waters HPLC 2695 system.

For series [12], the target named is T2, Recombinant mouse CD70 extra-cellular …. Put plainly: BLI (Octet RED), conjugate on anti-human IgG Fc tips, CD70 ECD-His in solution 200 to 3.13 nM. The procedure:
as §2

The target of series [13] is T3, Recombinant human CD70 extra-cellular …. Put plainly: BLI (Octet RED), conjugate on anti-human IgG Fc tips, CD70 ECD-His in solution 200 to 3.13 nM, 1:1 global fit. The procedure: as §2
In series [14] the target is T4, Recombinant cynomolgus monkey CD70 …. The description is as above. Here is the method:
as §2

For the molecule `CC[C@@]1(O)C(=O)OCc2c1cc1n(c2=O)Cc2c-1nc1cc(F)c(C)c3c1c2[C@@H](N)CC3` [Exatecan, exatecan], the cytotoxicity result in [1] is reported as “cytotoxic on all cell lines”.

B1: 2E7 antibody (antibody, human IgG1, kappa, V domains shown)
VH: QVQLQESGPGLVKPSETLSLTCTVSGGSVSSDYYYWSWIRQPPGKGLEWLGYIYYSGSTNYNPSLKSRVTISVDTSKNQFSLKLRSVTTADTAVYYCARGDGDFLGVCFDYWGQGTLVTVSS
VL: EIVLTQSPATLSLSPGERATLSCRASQSVSSYLAWYQQKPGQAPRLLIFDASNRATGIPARFSGSGSGTDFTLTISSLEPEDFAVYYCQQRSNWPLTFGGGTKVEIKR
notes: Made in ExpiCHO-S cells and purified on Protein A; also called Ab 2E7; parental mAb (2E7)
A word on the EC50: it is the concentration needed to bring the measured effect to its halfway point. As usually defined, the Kd is the constant that tells how readily two partners part at equilibrium. As usually defined, the koff is a measure of how fast the partners let go of each other. The kon is the rate constant with which the complex forms. What is called IC50 is the point on the concentration scale where inhibition reaches its midpoint. For the molecule B1, the results for the concentration giving a half-maximal response (EC50) in series [2], in series [3] and in [4] were 19.9 nM, 2.81 nM and 1.59 nM, respectively. In series [5], the binding result was “no binding (tested: 200 nM)”. Besides, the dissociation constant Kd in series [6] was determined as 0.807 nM; in [7], 0.39 nM. Further, the koff in series [6] stood at 0.000254 s⁻¹; in series [7] it was 0.000241 s⁻¹. The kon was found to be 314000 M⁻¹ s⁻¹ in series [6] and 618000 M⁻¹ s⁻¹ in series [7]. In addition, the figures for the 50% inhibitory concentration (IC50) in series [8], in series [9] and in series [10] were 8.78 nM, 6.24 nM and 7.04 nM, respectively.

B2: 2A4: anti-CD70 clone with "at least two more amino acid substitutions in HCDR3/LCDR3" "compared with the parent antibody 69A7" (antibody, V domains shown)
VH: B1 VH with F104Y, L105G, V107N, C108V, D110P
VL: EIVLTQSPATLSLSPGERATLSCRASQSVSSYLAWYQQKPGQAPRLLIFDASNRATGIPARFSGSGSGTDFTLTISSLEPEDFAVYYCQQRSNWPLTFGGGTKVEIK
On to B2, for which, in series [11], the “Retention time (hydrophobicity)” value is 9.06 min.

B3: 1H8: anti-CD70 clone with "at least two more amino acid substitutions in HCDR3/LCDR3" "compared with the parent antibody 69A7" (antibody, V domains shown)
VH: B1 VH with L105M
VL: B2 VL
As to B3, in series [11], the “hydrophobicity compared with parent antibody 69A7” value is “slightly more hydrophobic than the parent antibody” and the “Retention time (hydrophobicity)” value came out at 10.24 min.

B4: 2D2: anti-CD70 clone with "at least two more amino acid substitutions in HCDR3/LCDR3" "compared with the parent antibody 69A7" (antibody, V domains shown)
VH: B1 VH with F104Y, L105G, V107N
VL: B2 VL with S92L, N93K, W94F
Consider B4, for which, in series [11], the “Retention time (hydrophobicity)” value was determined as 8.81 min.

B5: 2E7-LD038 conjugate (antibody, human IgG1, kappa, DAR 8, V domains shown)
VH: B1 VH
VL: B1 VL
modifications: Drug-Linker LD038 (PB038; PEG unit, cleavable linker, exatecan) attached to cysteines after TCEP reduction; DAR8 for the whole antibody; residues not stated
notes: The constant regions are tied to 2E7 by claim 120; also called PA038; ADC PA038
For B5, the EC50 in series [2] is 26.4 nM; in [3], 2.16 nM; in [4], 1.45 nM. Also, in series [12], the binding result is reported as “no binding (tested: 200 nM)”. The dissociation constant (Kd) in series [13] came out at 0.12 nM; in series [14] it was 0.144 nM. Moreover, the koff was found to be 5.45e-05 s⁻¹ in [13] and 9.4e-05 s⁻¹ in [14]. Besides, the association rate constant (kon) in series [13] was 456000 M⁻¹ s⁻¹; in [14], 652000 M⁻¹ s⁻¹. Also, the half-maximal inhibitory concentration (IC50) stood at 11.6 nM in series [8], 7.35 nM in [9] and 8.03 nM in series [10].
